Consider 3 molecules from PMC10803776, “Structure of the M. tuberculosis DnaK−GrpE complex reveals how key DnaK roles are controlled” (Nature Communications, 2024).

For data set [1], the target named is T1, Mycobacterium tuberculosis DnaK, wild type, full length (Mycobacterium tuberculosis, UniProt P9WMJ9 1-625).
T1 construct: DnaK (Hsp70 chaperone) of Mycobacterium tuberculosis, full length; also called Mtb DnaK; WT DnaK
Put plainly: fluorescence polarisation; direct binding of F-NR to DnaK in the presence of ADP or without nucleotide. To be noted: both partners purified. (In general: Polarisation of emitted light reports the rotation of a fluorescent probe.)

Data set [2] concerns the target T2, Mycobacterium tuberculosis DnaK, full length, wild type (Mycobacterium tuberculosis, UniProt P9WMJ9 1-625).
T2 construct: DnaK (Hsp70 chaperone) of Mycobacterium tuberculosis, full length; also called Mtb DnaK; WT DnaK
Put plainly: ITC. Conditions: both partners purified.

The target in data set [3] is T3, Mycobacterium tuberculosis DnaK Mut-1 (Y106A, L107A) (Mycobacterium tuberculosis, UniProt P9WMJ9 1-625, Y106A | L107A).
T3 construct: DnaK of Mycobacterium tuberculosis, full length, with two alanine substitutions in NBD subdomain IA
Put plainly: ITC. To be noted: both partners purified.

Data set [4] deals with T1, Mycobacterium tuberculosis DnaK, wild …. Put plainly: SEC-MALS. To be noted: both partners purified.
Data set [5] concerns the molecule itself. Put plainly: cryo-EM structure; DnaK 2 μM, DnaJ2 4 μM, GrpE 4 μM, telaprevir 200 μM in 25 mM Tris pH 8.0, 40 mM NaCl, 10 mM MgCl2; no nucleotide; 3.7 Å map.

Ends that are not written are not given here.

The Kd is the concentration at which binding is half-saturated. For orientation: stoichiometry N means a count of units in the complex or per binding partner.

B1: N-terminal fluorescein-labeled NR peptide (NRLLLTG) (peptide)
peptide: fluorescein-NRLLLTG
notes: model peptide substrate of DnaK; also called F-NR; fluorescently tagged NR; source: bought: PEPTIDE 2.0 (purity >95%)
For B1, in data set [1], the binding result is reported as “binds”.

B2: Mycobacterium tuberculosis GrpE, full length, wild type (natural protein)
chain: MTDGNQKPDGNSGEQVTVTDKRRIDPETGEVRHVPPGDMPGGTAAADAAHTEDKVAELTADLQRVQADFANYRKRALRDQQAAADRAKASVVSQLLGVLDDLERARKHGDLESGPLKSVADKLDSALTGLGLVAFGAEGEDFDPVLHEAVQHEGDGGQGSKPVIGTVMRQGYQLGEQVLRHALVGVVDTVVVDAAELESVDDGTAVADTAENDQADQGNSADTSGEQAESEPSGS
notes: GrpE (nucleotide exchange factor) of Mycobacterium tuberculosis, full length; also called Mtb GrpE; WT GrpE
As for B2, in data set [2], the Kd turned out to be 240 nM and the “stoichiometry N” value turned out to be 0.69. Further, in data set [3], binding was put at a Kd of 1070 nM and the “stoichiometry N” value worked out at 0.13.

B3: Mycobacterium tuberculosis GrpE, wild type, full length (natural protein)
chain: MTDGNQKPDGNSGEQVTVTDKRRIDPETGEVRHVPPGDMPGGTAAADAAHTEDKVAELTADLQRVQADFANYRKRALRDQQAAADRAKASVVSQLLGVLDDLERARKHGDLESGPLKSVADKLDSALTGLGLVAFGAEGEDFDPVLHEAVQHEGDGGQGSKPVIGTVMRQGYQLGEQVLRHALVGVVDTVVVDAAELESVDDGTAVADTAENDQADQGNSADTSGEQAESEPSGS
notes: GrpE (nucleotide exchange factor) of Mycobacterium tuberculosis, full length, 235 residues (C-terminal residues printed as aa 188-235); also called Mtb GrpE; WT GrpE
As to B3, the entries for the “stoichiometry N” value in data set [4] and in data set [5] were 2 GrpE per DnaK and 2, respectively.
